According to the nanobody polyreactivity screen of Harvey et al. (2022):

test: yeast display, Sf9 membrane polyspecificity reagent, FACS + sequencing; frameworks hold sequencing errors
Method in brief: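 Nanobodies from a synthetic yeast display library (Saccharomyces cerevisiae BJ5465), induced 36–48 hours with galactose, were stained 1 hour at 4 °C with 10% biotinylated, detergent-solubilized Sf9 membrane reagent, enriched on streptavidin microbeads, then FACS-sorted. Anti-HA (expression) and streptavidin (reagent binding) fluorescence set low and high (top ~1%) gates. Polyreactivity labels come from the gate of origin. Genes were colony-PCR amplified, MiSeq 2 × 250 sequenced and filtered by CDR length.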

Sequence	polyreactivity (PSR sort gate)
QFQLVESGGGLVQAGGSLRLSCAASRRTFTYYDMGWYRQAPGNEGELVSAISRRGGSTYYADSVKGRFTISRDNAKNTVYFQMNSLKPEDTAVYYCAAEVRLFSYTYSFFRYEYWGQGTHVTVSS	high polyreactivity
QFQLVESGGGLVQAGGSLRLSCAAYGSIFMYYAMGWYIQAPGKERELVAAIRRGGNTNYADSVKGRFTISRDNAKNTVYLQMNSLKPEDTAVYYCAAAQYSRYSRVPNYYAGTYYYWGQGTQVTVSS	low polyreactivity
QFQLVESGGGLVQAGGSLRLSCESSGFTFYKYAIGSYRKAPGKERELVAAISRRGTSTYYADSVKGRFTISRDNAKNTVYLQMNSLNPEDTAVYYCNRDVSLSAFDYWGQGTQVTVSS	high polyreactivity
QFQLVESGGGLVQAGGSLRLSCPASGRIFYYYSMGWYRQAPGKEREFVAAITGRGGSTYYADSVKGRFTISRDNAKYTVYLQMNSLKPEDTADYYCNAGQYFEYYGWYSRYGYWGQGTQVTVSS	low polyreactivity
QFQLVESGGGLVQAGGTLRLSCAASGSTFYHYPLGWYRQAPGTVRQLVARITSSSGSTYYADSVKGRFTISRDNAKNTVYLQMYSLKPEDTAVYYCAASYYIVPYLTYGYWGQGTQVTVSS	low polyreactivity
QFQLVESGGGLVQAGGTLRLSCAASRRIFIHYAMGLSRQAPGKERELVSAISASGGTTNYADSVKGRFTISRDNAKNTVYLQLKSQKQEDTAVYYCAAEGYRSWRGLLSRYYYWGQGTQVTVSS	high polyreactivity
QFQLVESGGGLVQAGRSLRLSCAASGSIFWSNAMGWYRQAPGKERELVAAITTSDGSKYYADSVKGRFRISRDNANNTVYLQMNILKPEDTAVYYCAADTYFVCYGYYYWGQGTQVTVSS	low polyreactivity
QFQLVESGGGLVQAGVVSLKLCCLRKHFIYYAMAWSRQAPWKDTELVAGINSGGSTKYADSVKRRFTISRDNAKNSVYLQMNSLKPEDTAVYYCNADSYSPVIQEYDYWGQGTQVTVSS	low polyreactivity
QFQLVESGGGLVQSGGSLRLSCAASGFIFRSYAMGWYRQAPVKERELVAVISRRGVNTHYADSVKGRFTISRDNAKNTVYLQMNSLKPEDTAVYYCAKGLTAVGDYWGQGTQVTVSS	high polyreactivity
QFQLVESGGRLDQAGGSLRLSCAASSSIFDDYAMGWYRQAPGKERELVAAISWSGGSTYYADSVQGRFTISRDNPNHTVYLQMNSLKREDTAVYYCAAYAYDYLYGEYYWGQGTQVTVSS	low polyreactivity
QFQLVESGGRLVQPGGSLRLSCAASGGIFYGYAMGWYRKAPGKERELVAAISSTGGRTYYADSVKGRFTISRDNAKNTVYLQMNSLKPEDTAVSYCAAEDFTRQFEYWGQGTQVTVSS	low polyreactivity
QFQLVESGRGLVQAGGSLRLICAASGSIFIPYAMGWYRQAPGKERELVAAISSSGSTYYADSVKGRFTISRDNAKNTVYLQMNSLKPEDTAVYYCAAERHYSYSSYDYWGQGTQVTVSS	low polyreactivity
QFQLVESGRGLVQAGGSLRLSCAASGRIFSYNTLGWYRQAPGKERELVAAITNNGGSTYYADSVKGRFTISRDNAKNTVYLQMNSLKPEDTAVYYCNRDRYPFYYAYNYWGQGTQVTVSS	low polyreactivity
QFQLVESGRGLVQAGGSLRLSCAASGRTFTYYAMGWYRQAPGNERELVAAIRYTGGSTHYADSVKGRFTISRENAKNTVYFQMNSLKPEDTAVYYCADRRAYTRGGTVYFGYYYWGQGTQVTVSS	high polyreactivity
QFQLVESGRGLVQAGGSLRLSCAASVRIFRGYAKGWYRQAPGKEREFVAANTKNGGSTYYADSVKGRFTISRDYAKNTVYLQMNSLKPEDTAVYYCAVRAWEPYTGKSDYWGQGTQVTVSS	low polyreactivity
QFQLVESGVGLVQAGGSLRLSCAASVRINYAYAMGWYRQTPGKERELVAAISTRGGNTYYADSVKGRFTISRDNAMNTVYLQINSLIPEETEVYYCNALSVSRRFGYDSWGQGTQVTVSS	high polyreactivity
QFQLVESVGGLFQAGGSLRLSCDASGIIFIGNAMGWYRQAPGKERELVAAISRRGGRTYYADSVKGRFTISRDNAKNTVYLQMNSLKPEDTAVYYCAKRYYSYGKSGYYYWGQGTQVTVSS	high polyreactivity
QFQLVESVGGLVQAGGSLRLSCAASGRTGVNAMGWYRQAPRKERELVAAINNGDSTYYADSVKGRFTISRDNAKNTVYLQMNSLKPEDTAVYYCAARSALYPKYESWGQGTQVTVSS	low polyreactivity
QFQLVESVGGLVQAGGSLRLSCAASGYIFRHYAMGWYRQAPGKERELVAAISGRGGSTYYADSVKGRFTISRDNAKNTVYLQMNSLKPEDTAVYYCAKDRKAVGDFYYWGQGTQVTVSS	high polyreactivity
QFQLVESVGGLVQAGGSLRLTCAASGRIFLNYDMGWYRQEPGKDRELVAAITTGGSTYADSVKGRFTISRDNAKNTVYLQMNSLKAEDTAVYYCANRDRNKRDNWGQGTQVTGSS	low polyreactivity
QFQLVESVRGLFQAGGSLRLSCAASGSIFHPYGMGWYREDPVKERELVAAISSSGGDTYYADSVKGRFTISRDNAKNTVYLQMNSLKPEDTAVYYCATDHLDSYSVPGIGKHDYWGQGTQVTVSS	low polyreactivity
